Laboratory results: patent publication US11780901B2, “Analogues of parathyroid hormone (1-34) that function as agonists of the parathyroid hormone receptor-1 and display modified activity profiles” (Wisconsin Alumni Research Foundation, priority 2013, dated 2023)

What was measured:
[1] = target: T1, rat PTHR-1 (GR35 cells) (Rattus norvegicus, UniProt P25961); test: Washout assay of Gs-biased PTHR1 agonists (cAMP response after washout); assay type: cell-based; conditions: compared with PTH (1-34)
T1 construct: expressed in transfected cells
T1 sequence (P25961 27-591): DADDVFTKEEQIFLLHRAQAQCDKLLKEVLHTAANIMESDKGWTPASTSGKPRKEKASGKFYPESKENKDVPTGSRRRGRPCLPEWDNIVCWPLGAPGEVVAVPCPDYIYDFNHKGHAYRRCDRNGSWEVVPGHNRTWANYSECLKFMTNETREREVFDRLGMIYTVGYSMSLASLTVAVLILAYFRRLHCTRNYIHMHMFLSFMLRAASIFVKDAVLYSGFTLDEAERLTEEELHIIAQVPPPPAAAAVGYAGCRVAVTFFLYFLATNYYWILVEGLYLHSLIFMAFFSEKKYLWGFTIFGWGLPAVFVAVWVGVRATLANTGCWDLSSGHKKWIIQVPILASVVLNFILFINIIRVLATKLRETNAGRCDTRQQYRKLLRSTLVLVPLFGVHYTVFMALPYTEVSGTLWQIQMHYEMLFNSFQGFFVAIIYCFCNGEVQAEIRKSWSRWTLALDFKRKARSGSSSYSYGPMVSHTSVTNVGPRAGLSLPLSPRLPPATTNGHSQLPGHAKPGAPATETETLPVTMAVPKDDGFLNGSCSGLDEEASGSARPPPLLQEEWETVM
Description: These “washout assays”^7,8,21 assess the ability of the peptides to form stable ligand-receptor complexes capable of stimulating prolonged cAMP responses. The ability of a peptide to elicit prolonged cAMP responses via PTHR-1 following washout typically correlates with the affinity of that peptide for the R^0 state.^7,8,21
HEK293 cell monolayers expressing rat PTHR-1 (GR35 cells) were treated with ligand in for 14 minutes. This buffer was then discarded, and the cell monolayer was rinsed (2×). Buffer containing luciferin was introduced for 120 minutes. Luminescence response was recorded before and after washout, with luminescence readings recorded every 2 minutes. The area under the curve (AUC) for luminescence response curve was determined using GraphPad Prism.
Data were processed by using the Microsoft Excel and GraphPad Prism 4.0 software packages. Data from binding and cAMP dose—response assays were analyzed using a sigmoidal dose—response model with variable slope. Washout responses were assessed by quantifying the area under the luminescence response curve (AUC) following washout. Post-washout AUC was normalized by dividing the post-washout AUC by the pre-washout AUC. Paired data sets were statistically compared by using Student's t test (two-tailed) assuming unequal variances for the two sets.

[2] = target: T2, PTHR1 (Homo sapiens, UniProt Q03431); test: Functional selectivity (Gs activation/cAMP production vs βarr recruitment); assay type: cell-based; set-up: expressed in transfected cells; host or cells: cells stably expressing PTHR1; conditions: cAMP activation vs βarr1 and βarr2 recruitment, relative to PTH (1-34)
T2 sequence (Q03431 27-593): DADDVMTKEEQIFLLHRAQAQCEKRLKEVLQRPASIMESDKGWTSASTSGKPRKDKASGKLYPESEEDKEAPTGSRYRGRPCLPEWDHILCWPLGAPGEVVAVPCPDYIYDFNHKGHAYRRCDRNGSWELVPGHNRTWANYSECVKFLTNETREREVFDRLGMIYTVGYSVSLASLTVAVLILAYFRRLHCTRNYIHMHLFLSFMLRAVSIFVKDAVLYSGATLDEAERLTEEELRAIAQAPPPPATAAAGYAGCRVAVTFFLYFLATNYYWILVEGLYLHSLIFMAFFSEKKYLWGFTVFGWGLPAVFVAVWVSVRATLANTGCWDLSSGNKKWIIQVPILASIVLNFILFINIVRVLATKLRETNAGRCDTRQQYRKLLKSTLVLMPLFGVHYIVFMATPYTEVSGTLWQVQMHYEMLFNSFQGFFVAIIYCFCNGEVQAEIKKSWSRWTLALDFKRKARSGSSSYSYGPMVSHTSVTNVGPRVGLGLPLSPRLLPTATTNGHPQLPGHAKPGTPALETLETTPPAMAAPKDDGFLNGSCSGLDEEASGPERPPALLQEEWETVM
Description: More specifically, the initial studies that yielded the compounds disclosed and claimed herein were conducted to determine whether there is a correlation between βarr recruitment and receptor residence time of a PTHR1 agonist. The initial studies were thus conducted in two steps. First, the functional selectivity (Gs activation as indicated by cAMP production vs. βarr recruitment) of several PTHR1 agonists that display substantial differences in signaling duration were evaluated. Second, novel PTHR1 agonists were designed that have high functional selectivity and evaluated the signaling duration of these biased agonists.
(§1) The functional selectivity of BA058 is more significant than that of PTHrP. […] LA-PTH is a long-acting PTH analog. […] The middle panels in FIG. 2 are graphs depicting, from left-to-right: βarr1 and βarr2 recruitment, presented as normalized BRET signals (bioluminescence resonance energy transfer) as a function of the log of the peptide concentration, and cAmp activation presented as normalized RLU signals (relative light units) as a function of the log of the peptide concentration. Red=PTH. Orange=LA=LA−PTH. Blue=BA058. Green=PTHrP. (BRET assays are well known and suitable kits are available commercially. See, for example, Promega's “NanoBRET” kits, catalogs nos. N1821 and N1811; Promega Corporation, Fitchburg, Wis.). The table at the bottom of FIG. 2 presents the pEC50 and Emax values for the […] and βarr2 recruitment and cAMP activation. FIG. 3 presents the data for the bias of the activity—either toward βarr recruitment or cAMP activation.
Incorporating (R*)-β^2Leu/(D)-Leu at the 7th position or (R*)-β^2Nle at the 8th position leads to high Gs-biased agonism. […] (D)-Nle is poorly tolerated at the 8th position for both cAMP signaling and βarr recruitment. The top panels in FIG. 5 are graphs depicting, from left-to-right: βarr1 and βarr2 recruitment, presented as normalized BRET signals as a function of the log of the peptide concentration, and cAmp activation presented as normalized RLU signals as a function of the log of the peptide concentration. […]

[3] = tested on: PTHR2 ECL1 chimera; test: Activation of PTHR2 variant, ECL1 chimera; assay type: cell-based; conditions: 100 nM
Source text: (§2) Molecular basis of PTHR1 vs. PTHR2 selectivity. Previous receptor-mutation studies have identified sites within PTHR1 and PTHR2 that play critical roles in determining peptide agonist selectivity.

[4] = target: T3, PTHR2 I244L (Homo sapiens, UniProt P49190, I244L); test: Activation of PTHR2 variant I244L; assay type: cell-based; conditions: 100 nM
T3 construct: expressed in transfected cells
T3 sequence (P49190 25-550 I244L): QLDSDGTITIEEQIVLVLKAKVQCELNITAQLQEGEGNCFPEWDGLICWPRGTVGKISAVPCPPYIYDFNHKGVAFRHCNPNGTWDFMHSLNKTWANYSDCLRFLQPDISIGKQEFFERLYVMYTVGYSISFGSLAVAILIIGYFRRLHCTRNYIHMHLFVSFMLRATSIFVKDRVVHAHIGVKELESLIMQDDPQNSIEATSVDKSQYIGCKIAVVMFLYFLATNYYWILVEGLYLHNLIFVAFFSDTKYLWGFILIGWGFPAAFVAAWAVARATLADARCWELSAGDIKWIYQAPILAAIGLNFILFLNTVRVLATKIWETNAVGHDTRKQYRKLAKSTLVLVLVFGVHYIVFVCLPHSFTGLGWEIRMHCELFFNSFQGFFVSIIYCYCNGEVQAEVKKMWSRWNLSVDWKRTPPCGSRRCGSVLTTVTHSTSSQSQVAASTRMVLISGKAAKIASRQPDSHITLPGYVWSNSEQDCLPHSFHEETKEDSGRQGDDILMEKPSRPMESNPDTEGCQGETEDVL
Source text: as §2

[5] = target: T4, PTHR2 Y318I (Homo sapiens, UniProt P49190, Y318I); test: Activation of PTHR2 variant Y318I; assay type: cell-based; conditions: 100 nM
T4 construct: expressed in transfected cells
T4 sequence (P49190 25-550 Y318I): as the sequence (P49190 25-550 I244L) above, with L220I, Y294I counted along it
Source text: as §2

[6] = target: T5, R^0 state of PTHR1 (Homo sapiens, UniProt Q03431); conditions: relative to PTH (1-34); cited from earlier work
T5 construct: expressed in transfected cells; host or cells: COS-7, transient; membranes
T5 sequence (Q03431 27-593): T2 sequence (Q03431 27-593)

[7] = target: T2, PTHR1; set-up: expressed in transfected cells; conditions: previous studies; cited from earlier work
[8] = target: T6, PTHR2 (Homo sapiens, UniProt P49190); set-up: expressed in transfected cells; conditions: previous studies; cited from earlier work
T6 sequence (P49190 25-550): as the sequence (P49190 25-550 I244L) above, with L220I counted along it

[9] = target: T2, PTHR1; test: βarr recruitment (BRET); assay type: cell-based; set-up: expressed in transfected cells; host or cells: cells stably expressing PTHR1; conditions: compared with PTH and LA-PTH
Source text: as §1

[10] = target: T2, PTHR1; test: Wash-out assay, duration of PTHR1 activation; assay type: cell-based; set-up: expressed in transfected cells; host or cells: cells stably expressing PTHR1; conditions: PTHR1; agonist at ~EC80; PTH(1-34)-NH2 = 100
Source text: Duration of activation for PTHR1 and PTHR2. To assess the duration of PTHR1 and PTHR2 activation induced by α/β-peptides 14 and 15, the time course of cAMP production by each receptor was examined after stimulation with an agonist and subsequent washing of the cells to remove unbound peptide (wash-out assay). […] During the initial “ligand-on” phase, cells stably expressing PTHR1 or PTHR2 were stimulated with an agonist concentration corresponding to ˜EC80; the medium contained D-luciferin. […] After the addition of fresh medium containing D-luciferin, the luminescence decay is measured. The area under the “ligand-off” curve (AUC) reflects the duration of signaling, which may be related to residence time of the agonist on the receptor but could have other origins at the molecular level.

[11] = target: T6, PTHR2; test: Antagonism of PTHR2 activation by PTH(1-34)-NH2; assay type: cell-based; set-up: expressed in transfected cells; host or cells: cells stably expressing PTHR2; conditions: FIG. 11
Source text: Data points represent mean±s.e.m from four independent experiments. Curves were fit to the data using a four-parameter sigmoidal dose-response equation.
See Hoare, S. R. J., Clark, J. A. & Usdin, T. B. Molecular determinants of tuberoinfundibular peptide of 39 residues (TIP39) selectivity for the parathyroid hormone-2 (PTH2) receptor—N-terminal truncation of TIP39 reverses PTH2 receptor/PTH1 receptor binding selectivity. Journal of Biological Chemistry 275, 27274-27283 (2000) and Gardella, T. J., Luck, M. D., Jensen, G. S., Usdin, T. B. & Juppner, H. Converting parathyroid hormone-related peptide (PTHrP) into a potent PTH-2 receptor agonist.

signaling duration after washout (in words) [1]	agonist activity at PTHR2 I244L relative to wild-type PTHR2 (in words) [4]	agonist activity at PTHR2 Y318I relative to wild-type PTHR2 (in words) [5]	βarr recruitment efficacy maximum (in words) [9]	Normalized ligand-on Emax [10]	antagonism of PTHR2 activation by PTH(1-34)-NH2 (in words) [11]	Substance	signaling bias / functional selectivity (in words) [2]	agonist activity at PTHR2 ECL1 chimera relative to wild-type PTHR2 (in words) [3]	R0 affinity (in words) [6]	PTHR1 agonist activity (in words) [7]	PTHR2 agonist activity (in words) [8]
more transient signaling than PTH (1-34)	–	–	–	–	–	Ligand 12: PTH(1-34) analogue with replaced residue at position 8 (character image); highly Gs-biased (SVSEIQLXHNLGKHLNSMERVEWLRKKLQDVHNF; non-natural residue at position 8; MOD_RES (8)..(8) X at position 8 is (R*)-Beta-2-Norleucine.)	strongly biased toward cAMP activation relative to both βarr1 and βarr2 recruitment	–	–	–	–
–	much more susceptible to activation	much more susceptible to activation	lower efficacy βarr recruitment maximum	102 ± 1	antagonistic effect	PTHrP(1-36)-NH2: parathyroid hormone-related protein fragment, naturally PTHR1-selective agonist	biased toward cAMP activation relative to both βarr1 and βarr2 recruitment	much more susceptible to activation	moderate	potent agonist	very weak agonist
